This is an account of results in US20130129746A1 (GlaxoSmithKline, published 2013).

B1: DOM7h-11-18 (other)
VL: DIQMTQSPSSLSASVGDRVTITCRASRPIGTMLSWYQQKPGKAPKLLIWFGSRLQSGVPSRFSGSGSGTDFTLTISSLQPEDFATYHCAQAGTHPTTFGQGTKVEIKR
B2: DOM7h-11-19 (other)
VL: B1 VL with W49L, H87Y, A91T
B3: DOM7h-14-18 (other)
VL: DIQMTQSPSSLSASVGDRVTITCRASQWIGSQLSWYQQKPGKAPKLLIMWRSSLQSGVPSRFSGSGSGTDFTLTISSLQPEDFATYYCAQGLMKPMTFGQGTKVEIKR
notes: Vk dAb (AlbudAb)
B4: DOM7h-14-19 (other)
VL: B3 VL with T22S, K42E, L92A, M93A, K94L, M96R
notes: Vk dAb (AlbudAb)
B5: DOM7h-11-56 (other)
VL: B1 VL with T22S, W49L, F50A, G51F, H87Y, R108W
notes: Vk dAb
B6: DOM7h-11-69 (other)
VL: B1 VL with W49L, F50A, G51F, H87Y, T93V
notes: Vk dAb
B7: DOM7h-11-67 (other)
VL: B1 VL with W49L, F50A, G51F, H87Y, P95H, I106N, R108W
notes: Vk dAb
B8: DOM7h-11-79 (other)
VL: B1 VL with W49L, F50A, G51F, H87Y, A91T, R108W
notes: Vk dAb
B9: DOM7h-11-68 (other)
VL: B1 VL with K42E, W49L, F50A, G51F, H87Y, A91T, R108W
notes: Vk dAb
B10: DOM7h-11-57 (other)
VL: B1 VL with W49L, F50A, G51F, S77N, H87Y, R108W
notes: Vk dAb
B11: DOM7h-11-65 (other)
VL: B1 VL with W49L, F50A, G51F, F83V, H87Y, R108W
notes: Vk dAb
B12: DOM7h-11-80 (other)
VL: B1 VL with T22F, W49L, F50A, G51F, H87Y, R108W
notes: Vk dAb
B13: DOM7h-11-90 (other)
VL: B1 VL with W49L, F50A, G51F, S77N, H87Y
notes: Vk dAb; also called DOM7h-11-57 W108R/N106I
B14: DOM7h-11-87 (other)
VL: B1 VL with W49L, F50A, G51F, H87Y, P95H
notes: Vk dAb; also called DOM7h-11-67 W108R/N106I
B15: DOM7h-11-86 (other)
VL: B1 VL with W49L, F50A, G51F, F83V, H87Y
notes: Vk dAb; also called DOM7h-11-65 W108R/N106I
B16: DOM7h-11-88 (other)
VL: B1 VL with W49L, F50A, G51F, H87Y, P95H, I106N
notes: Vk dAb; also called DOM7h-11-67 W108R

Changes are numbered by the printed parent chain. Numbers in names are those of the source.

T1 sequence (P02770 25-608): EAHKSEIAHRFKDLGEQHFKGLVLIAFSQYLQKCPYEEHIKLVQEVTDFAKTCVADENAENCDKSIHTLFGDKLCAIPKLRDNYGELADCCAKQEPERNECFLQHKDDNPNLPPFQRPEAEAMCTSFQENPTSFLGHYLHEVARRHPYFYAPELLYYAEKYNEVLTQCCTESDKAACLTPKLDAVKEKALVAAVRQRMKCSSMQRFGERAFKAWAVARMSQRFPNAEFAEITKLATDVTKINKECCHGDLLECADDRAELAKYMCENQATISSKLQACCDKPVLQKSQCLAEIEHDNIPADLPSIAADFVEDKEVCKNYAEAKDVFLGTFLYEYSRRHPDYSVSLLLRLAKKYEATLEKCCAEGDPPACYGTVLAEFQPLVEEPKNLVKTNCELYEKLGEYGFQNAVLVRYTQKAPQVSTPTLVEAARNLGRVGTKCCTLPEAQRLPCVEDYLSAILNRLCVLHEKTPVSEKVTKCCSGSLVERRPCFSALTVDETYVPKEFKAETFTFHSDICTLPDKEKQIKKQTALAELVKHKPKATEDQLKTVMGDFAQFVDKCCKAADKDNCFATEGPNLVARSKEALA
T4 sequence (P07724 25-608): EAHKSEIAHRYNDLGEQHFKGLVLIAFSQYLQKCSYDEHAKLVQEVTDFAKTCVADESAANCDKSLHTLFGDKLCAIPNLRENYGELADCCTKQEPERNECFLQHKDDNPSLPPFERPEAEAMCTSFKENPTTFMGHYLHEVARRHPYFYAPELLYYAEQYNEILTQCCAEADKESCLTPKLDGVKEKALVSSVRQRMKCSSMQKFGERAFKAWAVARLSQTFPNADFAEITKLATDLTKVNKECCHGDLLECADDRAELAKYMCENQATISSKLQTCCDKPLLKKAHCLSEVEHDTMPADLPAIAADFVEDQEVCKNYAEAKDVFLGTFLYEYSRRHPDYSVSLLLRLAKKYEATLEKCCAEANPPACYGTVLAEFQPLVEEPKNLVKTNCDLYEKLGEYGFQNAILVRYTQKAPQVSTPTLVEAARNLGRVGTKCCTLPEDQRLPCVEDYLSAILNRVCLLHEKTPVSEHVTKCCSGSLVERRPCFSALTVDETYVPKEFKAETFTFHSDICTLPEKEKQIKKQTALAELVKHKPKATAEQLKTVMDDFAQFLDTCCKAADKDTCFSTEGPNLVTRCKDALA
T3 sequence (A2V9Z4 25-608): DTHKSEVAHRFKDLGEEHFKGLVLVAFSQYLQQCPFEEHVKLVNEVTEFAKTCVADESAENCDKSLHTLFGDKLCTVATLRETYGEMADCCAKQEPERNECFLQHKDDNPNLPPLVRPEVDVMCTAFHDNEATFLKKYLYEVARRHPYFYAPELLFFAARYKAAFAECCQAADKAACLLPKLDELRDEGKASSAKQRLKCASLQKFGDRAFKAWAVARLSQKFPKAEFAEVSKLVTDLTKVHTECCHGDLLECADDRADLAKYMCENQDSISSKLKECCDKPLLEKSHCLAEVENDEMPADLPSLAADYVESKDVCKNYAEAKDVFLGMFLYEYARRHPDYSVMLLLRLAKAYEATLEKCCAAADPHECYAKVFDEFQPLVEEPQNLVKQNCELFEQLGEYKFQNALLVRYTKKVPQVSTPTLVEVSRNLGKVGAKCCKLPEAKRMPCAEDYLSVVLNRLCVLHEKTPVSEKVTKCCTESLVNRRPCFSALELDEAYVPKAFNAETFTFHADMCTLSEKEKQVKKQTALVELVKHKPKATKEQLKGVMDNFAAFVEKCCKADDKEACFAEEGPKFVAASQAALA

One assay addresses T1, Rat Serum Albumin (rat, UniProt P02770 25-608).
T1 construct: mature; purified protein on CM5 chips for BIAcore; also called RSA; rat SA
Briefly: BIAcore SPR, second independent experiment. (SPR reads the build-up and loss of mass on a sensor chip optically.)
Description: (§1) Binding to HSA, CSA, MSA and RSA by BIAcore was confirmed using purified protein at 3 concentrations 1 μM, 500 nM and 50 nM.
In general, Kd refers to a measure of binding affinity in units of concentration. One may read the koff as the first-order rate constant of dissociation. What is called kon is a measure of how fast the partners come together. B1 yielded a Kd of 29000 nM, an off-rate (koff) of 0.37 s⁻¹ and a kon of 13000 M⁻¹ s⁻¹.

In turn, B2 showed a Kd of 17000 nM, a koff of 0.14 s⁻¹ and a kon of 8100 M⁻¹ s⁻¹.

Another assay has as its target T2, Human Serum Albumin (human, UniProt P02768 25-609).
T2 construct: mature; purified protein on CM5 chips for BIAcore; also called HSA; human SA
As to the kind of experiment: BIAcore SPR, second independent experiment.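 Also: purified domain antibodies run as analytes at 50 nM, 500 nM and 1 µM over HSA, CSA, MSA and RSA.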
Description: as §1
Turning to B1, the Kd amounted to 32000 nM, the koff amounted to 0.27 s⁻¹ and the kon was 8390 M⁻¹ s⁻¹.

Consider B2, for which the equilibrium dissociation constant (Kd) stood at 38000 nM, the koff is 0.209 s⁻¹ and the kon was 5400 M⁻¹ s⁻¹.

A further assay has as its target T3, Cynomolgus monkey Serum Albumin (Cynomolgus monkey, UniProt A2V9Z4 25-608).
T3 construct: mature; purified protein on CM5 chips for BIAcore; also called CSA; cyno SA
As to the kind of experiment: BIAcore SPR, second independent experiment.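 Also: purified domain antibodies run as analytes at 50 nM, 500 nM and 1 µM over HSA, CSA, MSA and RSA.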
Description: as §1
The molecule B1 came in with a Kd of 65000 nM, a koff of 0.48 s⁻¹ and an association rate constant (kon) of 7300 M⁻¹ s⁻¹.

The molecule B2 displayed a Kd of 375000 nM, a koff of 0.62 s⁻¹ and an on-rate constant (kon) of 1700 M⁻¹ s⁻¹.

Another assay has as its target T4, mouse serum albumin (mouse, UniProt P07724 25-608).
T4 construct: mature; purified protein on CM5 chips for BIAcore; also called MSA; mouse SA
Briefly: BIAcore SPR, second independent experiment.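 Also: purified domain antibodies run as analytes at 50 nM, 500 nM and 1 µM over HSA, CSA, MSA and RSA.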
Description: as §1
Molecule B1 returned a Kd of 1600 nM, an off-rate constant (koff) of 0.0623 s⁻¹ and a kon of 40000 M⁻¹ s⁻¹.

In turn, B2 had a Kd of 18000 nM, a koff of 0.088 s⁻¹ and a kon of 4900 M⁻¹ s⁻¹.

The target in a further assay is T1, Rat Serum Albumin. As to the kind of experiment: Albumin KD column of the PK table (repeats Table 6).
In the case of B3, the Kd came out at 410 nM.

Consider B4, for which binding was characterised by a dissociation constant (Kd) of 890 nM.

For another assay, the target named is T1, Rat Serum Albumin. As to the kind of experiment: BIAcore SPR.
Excerpt: (§2) MSA antigen was obtained from Sigma (essentially fatty acid free, ˜99% (agarose gel electrophoresis), lyophilized powder Cat. No. A3559) and CSA was purified from Cynomolgus serum albumin using prometic blue resin (Amersham).
B5 yielded a Kd of 23.4 nM.

Consider B6, for which the Kd came to 27.1 nM.

The molecule B7 gave a Ka of 8.6e+07 M⁻¹, a Kd of 11.6 nM and a kon of 1.33e+06 M⁻¹ s⁻¹.

With B8, the Kd is 11.1 nM.

B9 gave a Kd of 25.3 nM.

In the case of B10, the Ka came out at 3.42e+07 M⁻¹, the Kd came to 29.2 nM and the on-rate constant (kon) turned out to be 566000 M⁻¹ s⁻¹.

In turn, B11 displayed a Ka of 4.06e+07 M⁻¹, a Kd of 24.6 nM and a kon of 780000 M⁻¹ s⁻¹.

For the molecule B12, the Kd is 24.1 nM.

In a further assay the target is T2, Human Serum Albumin. As to the kind of experiment: BIAcore SPR.
Excerpt: as §2
As to B5, the Kd is 1.6 nM.

The molecule B6 came in with a Kd of 3.2 nM.

Consider B7, for which the Ka worked out at 1.12e+09 M⁻¹, binding was put at a Kd of 0.9 nM and the kon was 1.75e+06 M⁻¹ s⁻¹.

B8 gave a Kd of 5.9 nM.

B9 showed a Kd of 33.5 nM.

Take B10: the Ka is 5.52e+08 M⁻¹, the Kd was 1.8 nM and the on-rate (kon) was determined as 1.22e+06 M⁻¹ s⁻¹.

In the case of B11, the Ka is 5.52e+08 M⁻¹, binding was put at a Kd of 1.8 nM and the kon was determined as 1.3e+06 M⁻¹ s⁻¹.

In turn, B12 had a Kd of 2.1 nM.

Another assay addresses T3, Cynomolgus monkey Serum Albumin. As to the kind of experiment: BIAcore SPR.
Excerpt: as §2
Molecule B5 yielded a Kd of 5.2 nM.

On to B6, for which the Kd turned out to be 5.9 nM.

In the case of B7, the Ka came out at 3.69e+08 M⁻¹, the Kd came out at 2.7 nM and the kon was 2.03e+06 M⁻¹ s⁻¹.

Regarding B8, the equilibrium dissociation constant (Kd) was determined as 11.7 nM.

Regarding B9, the Kd amounted to 37.9 nM.

B10 showed a Ka of 1.63e+08 M⁻¹, a Kd of 6.1 nM and a kon of 1.34e+06 M⁻¹ s⁻¹.

In turn, B11 registered a Ka of 6.35e+07 M⁻¹, a Kd of 15.7 nM and a kon of 1.19e+06 M⁻¹ s⁻¹.

B12 gave a Kd of 5.5 nM.

For another assay, the target named is T4, mouse serum albumin. Briefly: BIAcore SPR.
Excerpt: as §2
On to B5, for which the Kd stood at 7.6 nM.

Regarding B6, the Kd is 10 nM.

B7 registered a dissociation constant (Kd) of 6.7 nM.

Take B8: the affinity, expressed as Kd, was 6.9 nM.

As for B9, binding was characterised by a dissociation constant (Kd) of 15.5 nM.

B10 returned a Kd of 10.9 nM.

Molecule B11 registered an equilibrium dissociation constant (Kd) of 9.4 nM.

For B12, binding was put at a Kd of 10.9 nM.

In a further assay the target is T3, Cynomolgus monkey Serum Albumin. As to the kind of experiment: BIAcore SPR. The source holds these as a separate data set.
With B13, the Ka is 1.01e+08 M⁻¹, binding was put at a Kd of 9.99 nM and the kon was 747000 M⁻¹ s⁻¹.

As to B14, the Ka came out at 2.47e+08 M⁻¹, the Kd amounted to 4.21 nM and the kon was found to be 1.37e+06 M⁻¹ s⁻¹.

B15 showed a Ka of 1.08e+08 M⁻¹, a Kd of 13.4 nM and a kon of 833000 M⁻¹ s⁻¹.

A further assay deals with T1, Rat Serum Albumin. Briefly: BIAcore SPR. This is another data set of the same source.
B16: the Ka was 5.96e+07 M⁻¹, the Kd amounted to 16.9 nM and the kon was 846000 M⁻¹ s⁻¹.

B13: the Ka is 1.91e+07 M⁻¹, the Kd turned out to be 53.6 nM and the kon came out at 376000 M⁻¹ s⁻¹.

As for B14, the Ka turned out to be 5.77e+07 M⁻¹, the equilibrium dissociation constant (Kd) was 17.6 nM and the kon came to 830000 M⁻¹ s⁻¹.

In the case of B15, the Ka stood at 2.8e+07 M⁻¹, binding was put at a Kd of 37.8 nM and the kon worked out at 560000 M⁻¹ s⁻¹.

The target in a further assay is T1, Rat Serum Albumin. Briefly: BIAcore SPR. This is another data set of the same source.
Description: as §1
On to B1, for which the Kd was found to be 80 nM, the koff came out at 0.06 s⁻¹ and the kon was 1.64e+06 M⁻¹ s⁻¹.

With B2, the affinity, expressed as Kd, was 28 nM; the koff turned out to be 0.091 s⁻¹; the kon was found to be 980000 M⁻¹ s⁻¹.

For the molecule B3, the dissociation constant (Kd) came out at 410 nM, the koff is 0.228 s⁻¹ and the kon worked out at 560000 M⁻¹ s⁻¹.

On to B4, for which the Kd was 890 nM, the koff was 0.287 s⁻¹ and the association rate constant (kon) was 320000 M⁻¹ s⁻¹.

The target of another assay is T2, Human Serum Albumin. Briefly: BIAcore SPR. The source holds these as a separate data set.
Description: as §1
On to B1, for which the Kd amounted to 36 nM, the koff turned out to be 0.051 s⁻¹ and the kon was 3.4e+06 M⁻¹ s⁻¹.

For B2, the Kd was 65 nM, the koff was found to be 0.11 s⁻¹ and the kon was 1.8e+06 M⁻¹ s⁻¹.

With B3, the affinity, expressed as Kd, was 280 nM; the koff was 0.0339 s⁻¹; the on-rate constant (kon) is 189000 M⁻¹ s⁻¹.

B4: the equilibrium dissociation constant (Kd) was 70 nM, the koff worked out at 0.0525 s⁻¹ and the kon came out at 826000 M⁻¹ s⁻¹.

In another assay the target is T3, Cynomolgus monkey Serum Albumin. Briefly: BIAcore SPR. The source holds these as a separate data set.
Description: as §1
Regarding B1, binding was characterised by a dissociation constant (Kd) of 10000 nM, the koff amounted to 1.36 s⁻¹ and the kon is 225000 M⁻¹ s⁻¹.

For the molecule B2, the Kd was no less than 10000 nM.

In turn, B3 registered a Kd of 180 nM, a koff of 0.105 s⁻¹ and an on-rate (kon) of 630000 M⁻¹ s⁻¹.

For B4, the Kd was 225 nM, the dissociation rate constant (koff) was determined as 0.156 s⁻¹ and the kon came out at 700000 M⁻¹ s⁻¹.

Another assay concerns the target T4, mouse serum albumin. As to the kind of experiment: BIAcore SPR. The source holds these as a separate data set.
Description: as §1
The molecule B1 displayed a Kd of 150 nM, a koff of 0.024 s⁻¹ and an on-rate (kon) of 440000 M⁻¹ s⁻¹.

Turning to B2, the dissociation constant (Kd) was found to be 100 nM, the off-rate constant (koff) was found to be 0.037 s⁻¹ and the association rate constant (kon) worked out at 1.4e+06 M⁻¹ s⁻¹.

As to B3, binding was characterised by a dissociation constant (Kd) of 65 nM, the koff is 0.0924 s⁻¹ and the on-rate (kon) was found to be 2.28e+06 M⁻¹ s⁻¹.

B4 returned a Kd of 60 nM, a koff of 0.0576 s⁻¹ and an association rate constant (kon) of 1.16e+06 M⁻¹ s⁻¹.

A further assay deals with T2, Human Serum Albumin. As to the kind of experiment: BIAcore SPR. This is another data set of the same source.
As to B16, the Ka stood at 1.51e+08 M⁻¹, the Kd turned out to be 6.71 nM and the kon turned out to be 1.14e+06 M⁻¹ s⁻¹.

With B13, the Ka came to 5.27e+07 M⁻¹; the affinity, expressed as Kd, was 20.2 nM; the koff was found to be 0.0087 s⁻¹; the kon is 469000 M⁻¹ s⁻¹.

With B14, the Ka was 1.37e+08 M⁻¹, the dissociation constant (Kd) amounted to 7.39 nM and the on-rate constant (kon) was 1.17e+06 M⁻¹ s⁻¹.

In turn, B15 registered a Ka of 9.51e+07 M⁻¹, a Kd of 10.7 nM and a kon of 790000 M⁻¹ s⁻¹.
